From patent publication US20120288481A1 (BRIGHAM AND WOMEN S HOSPITAL, published 2012)

Molecular target: human EphA2 receptor on human cardiac stem cells (hCSCs) (human, UniProt P29317 24-976)
Assay: cell-based or functional assay

human EphA2 receptor on human cardiac stem cells (hCSCs), sequence (P29317 24-976 limits assumed): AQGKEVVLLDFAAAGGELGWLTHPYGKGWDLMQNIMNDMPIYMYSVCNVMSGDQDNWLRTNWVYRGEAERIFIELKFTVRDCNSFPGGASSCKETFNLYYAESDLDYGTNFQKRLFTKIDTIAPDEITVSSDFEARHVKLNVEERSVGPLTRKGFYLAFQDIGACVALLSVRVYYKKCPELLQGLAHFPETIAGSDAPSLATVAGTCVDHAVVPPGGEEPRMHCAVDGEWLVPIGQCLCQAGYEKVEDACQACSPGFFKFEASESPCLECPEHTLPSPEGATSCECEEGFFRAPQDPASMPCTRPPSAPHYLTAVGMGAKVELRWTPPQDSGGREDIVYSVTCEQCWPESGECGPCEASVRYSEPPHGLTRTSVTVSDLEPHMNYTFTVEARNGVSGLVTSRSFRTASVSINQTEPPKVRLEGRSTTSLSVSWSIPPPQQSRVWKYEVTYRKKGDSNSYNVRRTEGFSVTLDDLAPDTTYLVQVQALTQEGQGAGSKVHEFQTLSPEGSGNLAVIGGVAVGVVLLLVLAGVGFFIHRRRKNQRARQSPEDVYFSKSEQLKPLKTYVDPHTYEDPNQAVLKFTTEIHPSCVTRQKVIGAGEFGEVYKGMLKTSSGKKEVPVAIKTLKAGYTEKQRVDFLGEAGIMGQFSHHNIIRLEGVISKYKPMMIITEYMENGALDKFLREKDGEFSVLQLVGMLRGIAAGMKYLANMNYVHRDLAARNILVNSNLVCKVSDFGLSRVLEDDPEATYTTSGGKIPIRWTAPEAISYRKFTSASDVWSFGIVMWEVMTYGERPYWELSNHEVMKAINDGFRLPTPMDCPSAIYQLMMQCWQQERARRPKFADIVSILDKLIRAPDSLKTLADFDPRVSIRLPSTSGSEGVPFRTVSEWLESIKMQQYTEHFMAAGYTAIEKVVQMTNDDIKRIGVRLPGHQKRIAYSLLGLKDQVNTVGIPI

speed of locomotion of hCSCs within the myocardium (two-photon microscopy): 2 fold
B1: human ephrin A1-Fcy chimeric protein (ephrin A1-Fc) (Fc fusion, UniProt P20827 19-182, looked up, not shown: a dimerising Fc or GST)
chain: DRHTVFWNSSNPKFRNEDYTIHVQLNDYVDIICPHYEDHSVADAAMEQYILYLVEHEEYQLCQPQSKDQVRWQCNRPSAKHGPEKLSEKFQRFTPFTLGKEFKEGHSYYYISKPIHQHEDRCLRLKVTVSGKITHSPQAHDNPQEKRLAADDPEVRVLHSIGHS
